Experimental data taken from article PMC3199254.

Substrate: O=P(O)(O)O
Assay: cells, lysate or membranes
Settings: intact delta-Pst1 cells grown 24 h in Pi-limiting BG-11; room temperature; transport Km

B1: Pst2 (Synechocystis sp. PCC 6803 substr. Kazusa) (protein)
chain: GTLNGAGASFPAPLYQRYFAEYKKATGNTVNYNSVGSGAGIRQFIGETVDFGATDAVPTSAQRQQMKRGVVMVPTAGGAVAVVYNLPGKKVQLSRIALGKIFTGELKTWNQVDSKLPNTPIRVVVRADGSGTTDIFTSHLSAISSTFRSKIGASQDPNWGFQVLKGPKNDGVAATVKQTPGAIGYVQDTFARRNEGPNLQTAKVQNKAGQYVEPSLAEANKAISGAKFDANFVAEISDPASGYPIVGLTWLLVYQNNKNANVAKDVKALVRWILTTGQNHNTQLEYTKIPPAVAQRVIAAVNKIK
Km: 0.13 µM
